# B1: Mothers against decapentaplegic homolog 3 (Rattus norvegicus (Rat)), P84025 (parent)
# chain: MSSILPFTPPIVKRLLGWKKGEQNGQEEKWCEKAVKSLVKKLKKTGQLDELEKAITTQNVNTKCITIPRSLDGRLQVSHRKGLPHVIYCRLWRWPDLHSHHELRAMELCEFAFNMKKDEVCVNPYHYQRVETPVLPPVLVPRHTEIPAEFPPLDDYSHSIPENTNFPAGIEPQSNIPETPPPGYLSEDGETSDHQMNHSMDAGSPNLSPNPMSPAHNNLDLQPVTYCEPAFWCSISYYELNQRVGETFHASQPSMTVDGFTDPSNSERFCLGLLSNVNRNAAVELTRRHIGRGVRLYYIGGEVFAECLSDSAIFVQSPNCNQRYGWHPATVCKIPPGCNLKIFNNQEFAALLAQSVNQGFEAVYQLTRMCTIRMSFVKGWGAEYRRQTVTSTPCWIELHLNGPLQWLDKVLTQMGSPSIRCSSVS
# Variants of: B1
# Details: with ncap_sars N
row,Variant,effect of a mutation on the interaction
1,S422A;S423A;S425A,with no effect
2,S423D;S425D,with no effect
